Test results taken from the supplement of paper PMC10567573.

B1: BTBD10 (parent)
chain: FVYENAKEGARNIRTSERVTLIVD
B2: ELF3 (parent)
chain: LSKEYWDCLEGKKSKHAPRGTHLW

Variants of: B1
Experiment: protein stability index of a GFP-peptide fusion (GPS, HEK-293T) (PSI 1-6); higher = more stable
Settings: c terminus: a fixed tail appended
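Note: lentivirally expressed fusions sorted by FACS into six bins by GFP to DsRed ratio, PSI derived from sequencing read proportions per bin multiplied by bin number.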

Variant	protein stability index
FVYENAKEGARNIRTSERVTLIVK	1.72
FVYENAKEGARNIRTSERVTLIVP	2.06
FVYENAKEGARNIRTSERVTLIVM	1.95
FVYENAKEGARNIRTSERVTLIVQ	2.03
FVYENAKEGARNIRTSERVTLIVF	2.88
FVYENAKEGARNIRTSERVTLIVR	1.93
FVYENAKEGARNIRTSERVTLIVY	2.01
FVYENAKEGARNIRTSERVTLIVN	1.95
FVYENAKEGARNIRTSERVTLIVV	2.35
FVYENAKEGARNIRTSERVTLIVS	1.18
FVYENAKEGARNIRTSERVTLIVH	1.66
FVYENAKEGARNIRTSERVTLIVI	2.95
FVYENAKEGARNIRTSERVTLIVW	3.12
FVYENAKEGARNIRTSERVTLIVE	1.65
FVYENAKEGARNIRTSERVTLIVT	2.5
FVYENAKEGARNIRTSERVTLIVG	1.82
FVYENAKEGARNIRTSERVTLIVL	2.03

Variants of: B2
Experiment: as above
Settings: c terminus: a fixed tail appended

Variant	protein stability index
LSKEYWDCLEFKKSKHAPRGTHLW	2.43
LSKEYWDCLELKKSKHAPRGTHLW	2.71
LSKEYWDCLESKKSKHAPRGTHLW	3.5
LSKEYWDCLETKKSKHAPRGTHLW	2.98
LSKEYWDWLEGKKSKHAPRGTHLW	2.17
LSKEYWDFLEGKKSKHAPRGTHLW	2.81
LSKEYWDKLEGKKSKHAPRGTHLW	3.73
LSKEYWDILEGKKSKHAPRGTHLW	2.66
LSKEYWDNLEGKKSKHAPRGTHLW	3.07
LSKEYWDALEGKKSKHAPRGTHLW	3.1
LSKEYWDMLEGKKSKHAPRGTHLW	3.48
LSKEYWDCLEGKKSKHAWRGTHLW	2.24
LSKEYWDCLEGKKSKHAMRGTHLW	2.31
LSKEYWDCLEGKKSKHANRGTHLW	3.36
LSKEYWDCLEGKKSKHAIRGTHLW	2.6
LSKEYWDCLEGKKSKHAARGTHLW	2.68
LSKEYWDCLEGKKSKHADRGTHLW	3
LSKEYWDCLEGKKSKHAERGTHLW	3.01
LSKEYWDCLEGKKSKHAPRGTHLH	3.98
LSKEYWDCLEGKKSKHAPRGTHLT	4.05
LSKEYWDCLEGKKSKHAPRGTHLC	3.8
LSKEYWDCLEGKKSKHAPRGTHLG	4.07
LSKEYWDCLEGKKSKHAPRGTHLK	4.11
LSKEYWDCLEGKKSKHAPRGTHLD	4.02
LSKEYWDCLEGKKSKHAPRGTHLI	2.94

Variant	protein stability index
LSKEYWDCLEGKKSKHAPRGTHLP	4.15
LSKEYWDCLEGKKSKHAPRGTHLS	4.08
LSKEYWDCLMGKKSKHAPRGTHLW	2.18
LSKEYWDCLGGKKSKHAPRGTHLW	2.37
LSKEYWDCLVGKKSKHAPRGTHLW	2.28
LSKEYWDCLQGKKSKHAPRGTHLW	2.73
LSKEYWDCLAGKKSKHAPRGTHLW	2.52
LSKEYWDCLTGKKSKHAPRGTHLW	2.1
LSKEYWDCLFGKKSKHAPRGTHLW	2.08
LSKEYWDCLKGKKSKHAPRGTHLW	2.18
LSKEYWDCLDGKKSKHAPRGTHLW	3.23
LSKEYWDCLYGKKSKHAPRGTHLW	1.63
LSKEYWDCLSGKKSKHAPRGTHLW	2.49
LSKEYWDCLPGKKSKHAPRGTHLW	2.16
LSKEFWDCLEGKKSKHAPRGTHLW	3.23
LSKEEWDCLEGKKSKHAPRGTHLW	3.62
LSKETWDCLEGKKSKHAPRGTHLW	2.66
LSKEAWDCLEGKKSKHAPRGTHLW	3.23
LSKERWDCLEGKKSKHAPRGTHLW	3
LSKEVWDCLEGKKSKHAPRGTHLW	2.34
LSKESWDCLEGKKSKHAPRGTHLW	3.3
LSKEIWDCLEGKKSKHAPRGTHLW	2.65
LSKEYWVCLEGKKSKHAPRGTHLW	2.44
LSKEYWNCLEGKKSKHAPRGTHLW	2.96
LSKEYWPCLEGKKSKHAPRGTHLW	2.04

Variant	protein stability index
LSKEYWHCLEGKKSKHAPRGTHLW	2.33
LSKEYWACLEGKKSKHAPRGTHLW	2.28
LSKEYWICLEGKKSKHAPRGTHLW	2.05
LSKEYWSCLEGKKSKHAPRGTHLW	2.44
LSKEYWDCLEGKKSKHAPRGRHLW	2.78
LSKEYWDCLEGKKSKHAPRGDHLW	3.45
LSKEYWDCLEGKKSKHAPRGYHLW	2.37
LSKEYWDCLEGKKSKHAPRGNHLW	3.1
LSKEYWDCLEGKKSKHAPRGGHLW	2.54
LSKEYWDCLEGKKSKHAPRGEHLW	3.37
LSKEYWDCLEGKKSKHAPRGFHLW	2.05
LSKEYWDCLEGKKSKHFPRGTHLW	2.78
LSKEYWDCLEGKKSKHMPRGTHLW	3.06
LSKEYWDCLEGKKSKHWPRGTHLW	2.4
LSKEYWDCLEGKKSKHPPRGTHLW	3.21
LSKEYWDCLEGKKSKHTPRGTHLW	2.86
LSKEYWDCLEGKKSKHYPRGTHLW	2.65
LSKEYWDCLEGNKSKHAPRGTHLW	3.68
LSKEYWDCLEGYKSKHAPRGTHLW	1.88
LSKEYWDCLEGHKSKHAPRGTHLW	2.52
LSKEYWDCLEGWKSKHAPRGTHLW	1.54
LSKEYWDCLEGTKSKHAPRGTHLW	2.43
LSKEYWDCLEGIKSKHAPRGTHLW	2.26
LSKEYWDCLEGQKSKHAPRGTHLW	2.99
LSKRYWDCLEGKKSKHAPRGTHLW	1.86

Variant	protein stability index
LSKYYWDCLEGKKSKHAPRGTHLW	2.16
LSKMYWDCLEGKKSKHAPRGTHLW	2.56
LSKIYWDCLEGKKSKHAPRGTHLW	2.65
LSKKYWDCLEGKKSKHAPRGTHLW	2.11
LSKTYWDCLEGKKSKHAPRGTHLW	2.87
LSKAYWDCLEGKKSKHAPRGTHLW	2.23
LSKEYWDCMEGKKSKHAPRGTHLW	3.42
LSKEYWDCPEGKKSKHAPRGTHLW	3.44
LSKEYWDCIEGKKSKHAPRGTHLW	3.04
LSKEYWDCCEGKKSKHAPRGTHLW	3.3
LSKEYWDCWEGKKSKHAPRGTHLW	2.27
LSKEYWDCKEGKKSKHAPRGTHLW	2.92
LSKEYWDCSEGKKSKHAPRGTHLW	3.31
LSKEYKDCLEGKKSKHAPRGTHLW	3.65
LSKEYLDCLEGKKSKHAPRGTHLW	3.08
LSKEYPDCLEGKKSKHAPRGTHLW	3.82
LSKEYVDCLEGKKSKHAPRGTHLW	3.13
LSKEYIDCLEGKKSKHAPRGTHLW	2.96
LSKEYMDCLEGKKSKHAPRGTHLW	3.56
LSKEYTDCLEGKKSKHAPRGTHLW	3.97
LSFEYWDCLEGKKSKHAPRGTHLW	2.1
LSSEYWDCLEGKKSKHAPRGTHLW	2.61
LSDEYWDCLEGKKSKHAPRGTHLW	2.69
LSVEYWDCLEGKKSKHAPRGTHLW	2.1
LSEEYWDCLEGKKSKHAPRGTHLW	2.97

Variant	protein stability index
LSGEYWDCLEGKKSKHAPRGTHLW	2.02
LSIEYWDCLEGKKSKHAPRGTHLW	2.29
LSMEYWDCLEGKKSKHAPRGTHLW	2.33
LSKEYWDCLEGKKSKHAPRKTHLW	2.59
LSKEYWDCLEGKKSKHAPRWTHLW	1.94
LSKEYWDCLEGKKSKHAPRPTHLW	2.72
LSKEYWDCLEGKKSKHAPRLTHLW	2.55
LSKEYWDCLEGKKSKHAPRSTHLW	3.15
LSKEYWDCLEGKKSKHAPRTTHLW	2.64
LSKEYWDCLEGKKSKHAPRFTHLW	1.75
LSKEYWDCLEGKKSKHAPRGTHYW	2.85
LSKEYWDCLEGKKSKHAPRGTHKW	3.29
LSKEYWDCLEGKKSKHAPRGTHWW	2.71
LSKEYWDCLEGKKSKHAPRGTHDW	4.24
LSKEYWDCLEGKKSKHAPRGTHFW	2.93
LAKEYWDCLEGKKSKHAPRGTHLW	2.59
LMKEYWDCLEGKKSKHAPRGTHLW	2.48
LDKEYWDCLEGKKSKHAPRGTHLW	3.11
LGKEYWDCLEGKKSKHAPRGTHLW	3.12
LKKEYWDCLEGKKSKHAPRGTHLW	2.28
LTKEYWDCLEGKKSKHAPRGTHLW	2.98
LQKEYWDCLEGKKSKHAPRGTHLW	2.78
LEKEYWDCLEGKKSKHAPRGTHLW	3.59
LFKEYWDCLEGKKSKHAPRGTHLW	2.26
LSKEYWDCLEGKKRKHAPRGTHLW	2.92

Variant	protein stability index
LSKEYWDCLEGKKNKHAPRGTHLW	2.96
LSKEYWDCLEGKKYKHAPRGTHLW	3.48
LSKEYWDCLEGKKTKHAPRGTHLW	3.13
LSKEYWDCLEGKKKKHAPRGTHLW	3.08
LSKEYWDCLEGKKFKHAPRGTHLW	1.99
LSKEYWDCLEGKKIKHAPRGTHLW	2.68
LSKEYWDCLEGKKEKHAPRGTHLW	3.16
LSKEYWDCLEGKTSKHAPRGTHLW	2.37
LSKEYWDCLEGKVSKHAPRGTHLW	2.32
LSKEYWDCLEGKASKHAPRGTHLW	2.76
LSKEYWDCLEGKWSKHAPRGTHLW	2.92
LSKEYWDCLEGKCSKHAPRGTHLW	2.24
LSKEYWDCLEGKESKHAPRGTHLW	3.52
LSKEYWDCLEGKGSKHAPRGTHLW	3.08
RSKEYWDCLEGKKSKHAPRGTHLW	2.96
CSKEYWDCLEGKKSKHAPRGTHLW	2.42
WSKEYWDCLEGKKSKHAPRGTHLW	1.97
MSKEYWDCLEGKKSKHAPRGTHLW	2.06
HSKEYWDCLEGKKSKHAPRGTHLW	2.16
LSKEYWDCLEGKKSKHAPRGTALW	2.56
LSKEYWDCLEGKKSKHAPRGTMLW	2.37
LSKEYWDCLEGKKSKHAPRGTYLW	2.51
LSKEYWDCLEGKKSKHAPRGTNLW	3.23
LSKEYWDCLEGKKSKHAPRGTGLW	2.68
LSKEYWDCLEGKKSKHAPRGTTLW	2.84

Variant	protein stability index
LSKEYWDCLEGKKSKHAPRGTPLW	3.03
LSKEYWDCLEGKKSKHAPRGTFLW	1.92
LSKEYWDCLEGKKSKQAPRGTHLW	2.86
LSKEYWDCLEGKKSKVAPRGTHLW	2.94
LSKEYWDCLEGKKSKTAPRGTHLW	3.43
LSKEYWDCLEGKKSKAAPRGTHLW	2.72
LSKEYWDCLEGKKSKGAPRGTHLW	2.88
LSKEYWDCLEGKKSKHAPSGTHLW	3.29
LSKEYWDCLEGKKSKHAPFGTHLW	2.25
LSKEYWDCLEGKKSKHAPDGTHLW	3.21
LSKEYWDCLEGKKSKHAPAGTHLW	3.06
LSKEYWDCLEGKKSKHAPTGTHLW	2.85
LSKEYWDCLEGKKSKHAPCGTHLW	2.6
LSKEYWDCLEGKKSKHAPYGTHLW	2.18
LSKEYWDCLEGKKSRHAPRGTHLW	3.44
LSKEYWDCLEGKKSIHAPRGTHLW	2.61
LSKEYWDCLEGKKSFHAPRGTHLW	2.74
LSKEYWDCLEGKKSEHAPRGTHLW	2.77
LSKEYWDCLEGKKSQHAPRGTHLW	2.87
LSKEYWDCLEGKKSSHAPRGTHLW	3.04
LSKEYWDCLEGKKSLHAPRGTHLW	2.16
